Our source for the uncoupling P;Ipeptide/h values is patent EP0866075B1, “Method to treat microbial infections by uncoupling of phosphotransferase system and appropriate agents therefor” (Arpida AG,, priority 1997, dated 1998).

The target of this assay is enzyme I (phosphoenolpyruvate-protein phosphotransferase, EC 2.7.3.9) of the E. coli phosphotransferase system (E. coli) (UniProt P08839). Briefly: cell-based or functional assay.

“HPr protein (phosphorylcarrier protein HPr) (from UniProt P0AA04 1-85)” showed an uncoupling P;Ipeptide/h of 2.7 Pi/peptide/h.
